From the supplement of paper PMC7125110
± gives the standard error. Variants at the floor of the assay were thinned out.

B1: glmS ribozyme (parent)
chain: AUAAAAGCGCCAGAACUACAGAAAUGUAGUUGACGAGGAGGAGGUUUAUCGAAUUUUCGGCGGAUGCCUCCAAA

What was measured:
Conditions in all cases: with glucosamine-6-phosphate
glucosamine-6-phosphate [1] = variants of: B1; test: self-cleavage kobs at 640 uM GlcN6P; higher = faster cleavage; RNA array
Method in brief: (§1)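 Barcoded ribozyme variants were transcribed in situ on sequenced MiSeq chips by E. coli RNA polymerase. At 37 °C, a hybridised Cy3 probe tracked them while glucosamine-6-phosphate (40 μM to 10 mM) in HEPES/KCl/Mg(OAc)2 buffer flowed in and tiles were imaged over ~14 h. Per-tile medians of signals normalised to baseline and to non-cleaving reference variants were fit to one- or two-exponential decays, giving kobs. kcat and KM came from weighted Michaelis–Menten fits across concentrations.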

glucosamine-6-phosphate [2] = variants of: B1; test: self-cleavage kobs at 2500 uM GlcN6P; higher = faster cleavage; RNA array
Method in brief: as §1

glucosamine-6-phosphate [3] = variants of: B1; test: self-cleavage kobs at 10000 uM GlcN6P; higher = faster cleavage; RNA array
Method in brief: as §1

| Variant | self-cleavage kobs at 640 uM GlcN6P (glucosamine-6-phosphate [1]) | self-cleavage kobs at 2500 uM GlcN6P (glucosamine-6-phosphate [2]) | self-cleavage kobs at 10000 uM GlcN6P (glucosamine-6-phosphate [3]) |
| --- | --- | --- | --- |
| G7C G26U G29U U57C A64U U65C | < 1e-05 s⁻¹ | – | – |
| A6C U54G C70U | 6.45e-05 ± 2.2e-05 s⁻¹ | – | – |
| A6G G41A C50A G62U | < 1e-05 s⁻¹ | – | – |
| G32A A39G U46C | 0.000174 ± 4.5e-05 s⁻¹ | 0.000355 ± 0.00011 s⁻¹ | – |
| A14C G38U G44A G63U C67U | < 1e-05 s⁻¹ | – | – |
| G9A U46C C67U | < 1e-05 s⁻¹ | – | – |
| A12U C67U C71U | 0.000764 ± 0.0002 s⁻¹ | 0.000592 ± 0.00018 s⁻¹ | – |
| C16A U31C G41C | < 1e-05 s⁻¹ | < 1e-05 s⁻¹ | – |
| G40C G43C C70A | < 1e-05 s⁻¹ | < 1e-05 s⁻¹ | – |
| A6U U45C C71U | < 1e-05 s⁻¹ | < 1e-05 s⁻¹ | – |
| U30C G38A G44A | < 1e-05 s⁻¹ | < 1e-05 s⁻¹ | – |
| G38C C58A C71U | < 1e-05 s⁻¹ | – | – |
| A6G G63U A64C C67U U69G | < 1e-05 s⁻¹ | < 1e-05 s⁻¹ | – |
| A12C U31C A48C A52U | < 1e-05 s⁻¹ | < 1e-05 s⁻¹ | – |
| G29U A39U G41U U65G | < 1e-05 s⁻¹ | < 1e-05 s⁻¹ | – |
| A14G C61G G66U C67G | 0.000103 ± 2.7e-05 s⁻¹ | – | – |
| A14C U49G C70G | 0.000526 ± 0.00023 s⁻¹ | – | – |
| C11G C16A U31C A42U | < 1e-05 s⁻¹ | – | – |
| G9C A12C C58U | < 1e-05 s⁻¹ | < 1e-05 s⁻¹ | – |
| G35A G51A U54A G63U | < 1e-05 s⁻¹ | – | – |
| U46C C71G | 7.56e-05 ± 1.5e-05 s⁻¹ | 0.000331 ± 5e-05 s⁻¹ | 0.000149 ± 6.2e-05 s⁻¹ |
| G35U C61G | < 1e-05 s⁻¹ | – | < 1e-05 s⁻¹ |

| Variant | self-cleavage kobs at 640 uM GlcN6P (glucosamine-6-phosphate [1]) | self-cleavage kobs at 2500 uM GlcN6P (glucosamine-6-phosphate [2]) | self-cleavage kobs at 10000 uM GlcN6P (glucosamine-6-phosphate [3]) |
| --- | --- | --- | --- |
| C16A G38U C67G | 0.0005 ± 0.00011 s⁻¹ | – | – |
| G43A G44A C58U | < 1e-05 s⁻¹ | – | – |
| A6U G38C C61U | < 1e-05 s⁻¹ | – | – |
| A6C G38A A52U C70U | < 1e-05 s⁻¹ | – | – |
| G7C A64U G66U | < 1e-05 s⁻¹ | – | – |
| G9A G29C G32A G38U | < 1e-05 s⁻¹ | – | – |
| A36C U69A | 6.08e-05 ± 1.6e-05 s⁻¹ | 0.000182 ± 4.6e-05 s⁻¹ | – |
| G13A G51U | < 1e-05 s⁻¹ | < 1e-05 s⁻¹ | < 1e-05 s⁻¹ |
| A33U A39C A48U G59U | < 1e-05 s⁻¹ | – | – |
| A39G G60U C67G | < 1e-05 s⁻¹ | < 1e-05 s⁻¹ | < 1e-05 s⁻¹ |
| C50A G62C A64G | < 1e-05 s⁻¹ | – | – |
| C34A G43U U55C | < 1e-05 s⁻¹ | < 1e-05 s⁻¹ | – |
| G13C G59A | < 1e-05 s⁻¹ | – | < 1e-05 s⁻¹ |
| G38C G43C C68U | < 1e-05 s⁻¹ | – | – |
| G29U C34U U47G C68U | 5.56e-05 ± 2.3e-05 s⁻¹ | – | – |
| C11G G37C C68U | 9.13e-05 ± 3.1e-05 s⁻¹ | – | – |
| A6G G9A G41U A42U C70A | < 1e-05 s⁻¹ | < 1e-05 s⁻¹ | – |
| A15G U45C C71U | 0.000376 ± 0.00017 s⁻¹ | 0.000625 ± 0.0003 s⁻¹ | – |
| G32C G63U U69G | 0.00126 ± 0.00029 s⁻¹ | – | – |
| A6U G35A G43U | < 1e-05 s⁻¹ | < 1e-05 s⁻¹ | – |
| A14G G41U C71U | 0.000155 ± 4.4e-05 s⁻¹ | 0.00102 ± 0.00029 s⁻¹ | – |
| G29C U31C G35U | < 1e-05 s⁻¹ | < 1e-05 s⁻¹ | – |

| Variant | self-cleavage kobs at 640 uM GlcN6P (glucosamine-6-phosphate [1]) | self-cleavage kobs at 2500 uM GlcN6P (glucosamine-6-phosphate [2]) | self-cleavage kobs at 10000 uM GlcN6P (glucosamine-6-phosphate [3]) |
| --- | --- | --- | --- |
| G21U U54C U69C | 0.00201 ± 0.00057 s⁻¹ | 0.000416 ± 0.00014 s⁻¹ | – |
| G62A G63C C70A C71U | 5.14e-05 ± 2.3e-05 s⁻¹ | – | – |
| A36G G37U A42C G44U | < 1e-05 s⁻¹ | – | < 1e-05 s⁻¹ |
| G32C G35C U47C C58U | < 1e-05 s⁻¹ | – | – |
| C8G C50U A53U U55G | < 1e-05 s⁻¹ | – | – |
| G59U G62A U65A | < 1e-05 s⁻¹ | < 1e-05 s⁻¹ | – |
| C16U G41A C71A | 7.7e-05 ± 2.1e-05 s⁻¹ | 0.000279 ± 7.1e-05 s⁻¹ | – |
| A15U U31A G32C | 4.96e-05 ± 2e-05 s⁻¹ | 6.02e-05 ± 2.5e-05 s⁻¹ | – |
| U31C A42C A64G C67G | < 1e-05 s⁻¹ | – | – |
| A39G U49A G60U | < 1e-05 s⁻¹ | < 1e-05 s⁻¹ | – |
| U45A G63C | < 1e-05 s⁻¹ | < 1e-05 s⁻¹ | – |
| C11G U45C C50G | < 1e-05 s⁻¹ | < 1e-05 s⁻¹ | – |
| G40A A52G C71A | 0.000146 ± 2.8e-05 s⁻¹ | 0.000203 ± 7.7e-05 s⁻¹ | – |
| C11A A53U U69C C71U | 0.000106 ± 4.9e-05 s⁻¹ | 5.97e-05 ± 2.3e-05 s⁻¹ | – |
| G41U A42U C61A | < 1e-05 s⁻¹ | < 1e-05 s⁻¹ | – |
| G9U G44C G63U | < 1e-05 s⁻¹ | < 1e-05 s⁻¹ | – |
| C8U G40U G59U C68U | < 1e-05 s⁻¹ | – | – |
| C8G A36G A42U C67A | < 1e-05 s⁻¹ | < 1e-05 s⁻¹ | – |
| G38U U47G C68U | 0.000119 ± 4e-05 s⁻¹ | – | – |
| U45C U46G U57A | < 1e-05 s⁻¹ | – | – |
| A36G U49A G63U | < 1e-05 s⁻¹ | – | – |
| A6C C10A A15G C16G G63A | < 1e-05 s⁻¹ | < 1e-05 s⁻¹ | < 1e-05 s⁻¹ |
